From PMC2933242

Biological target: T1, ERRα (estrogen-related receptor alpha) (UniProt P11474)
T1 sequence: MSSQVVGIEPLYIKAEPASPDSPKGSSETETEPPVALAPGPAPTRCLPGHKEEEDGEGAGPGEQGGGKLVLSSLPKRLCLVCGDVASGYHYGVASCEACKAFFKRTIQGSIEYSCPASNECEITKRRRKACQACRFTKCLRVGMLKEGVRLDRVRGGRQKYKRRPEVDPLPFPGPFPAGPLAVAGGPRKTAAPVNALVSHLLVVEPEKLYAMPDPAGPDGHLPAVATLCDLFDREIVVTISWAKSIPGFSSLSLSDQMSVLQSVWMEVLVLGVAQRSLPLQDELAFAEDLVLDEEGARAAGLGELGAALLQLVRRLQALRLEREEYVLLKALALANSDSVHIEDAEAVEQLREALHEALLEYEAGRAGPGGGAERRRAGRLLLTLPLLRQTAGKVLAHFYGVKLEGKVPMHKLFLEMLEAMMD
Experiment: competition
Conditions: 10-, 50-, EMSA with 15,000 cpm probe per reaction, buffer, salt, pH and temperature not given (as in ref 28)

Row | Sequence | binding signal (fold IC50 (reference)) (unlabeled G vs 32P G probe, 100-fold excess) | binding signal (fold IC50 (A competitor / G competitor)) (vs 32P G probe, 100-fold excess of competitor)
1 | GATCTAGCTCCTGCAGGTTCTCAAGGTTGTAGCCCGCACCCTGCTGATC (double strand) [PPARA -54,642 G probe (with -54,645 C)] | 1 | 
2 | GATCTAGCTCCTGCAGGTTCTCAAGGTTGTAGTCCACACCCTGCTGATC (double strand) [PPARA -54,642 A probe (with -54,645 T)] |  | 2.3
